Source: the supplement of paper PMC9112550, “Optimization of the antimicrobial peptide Bac7 by deep mutational scanning” (BMC Biology, 2022)

System: Escherichia coli TOP10
Test: shrunken log2 fold change of peptide-encoding DNA abundance (4.5 h post-induction vs induction); higher = less antimicrobial activity (less host growth inhibition)
Details: time post-induction: 4.5 h; library: site-saturation at positions 5, 18, 19, 20
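Note: peptides expressed intracellularly from a pBAD plasmid library in pooled LB shake-flask culture, induced with 0.3% L-arabinose, DNA abundance read by NGS, three biological replicates, DESeq2 with apeglm shrinkage.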

| Sequence | shrunken log2 fold change |
| --- | --- |
| RRIRDRPPRLPRPRPRPLCFPRP | 0.0676 |
| RRIRDRPPRLPRPRPRPLEIPRP | 0.287 |
| RRIRDRPPRLPRPRPRPLFEPRP | 0.7 |
| RRIRDRPPRLPRPRPRPLFRPRP | -0.168 |
| RRIRDRPPRLPRPRPRPLGCPRP | 0.206 |
| RRIRDRPPRLPRPRPRPLGEPRP | 0.147 |
| RRIRDRPPRLPRPRPRPLGRPRP | 0.0897 |
| RRIRDRPPRLPRPRPRPLGSPRP | 0.2 |
| RRIRDRPPRLPRPRPRPLHKPRP | 0.0824 |
| RRIRDRPPRLPRPRPRPLHYPRP | -0.0982 |
| RRIRDRPPRLPRPRPRPLKFPRP | 0.0649 |
| RRIRDRPPRLPRPRPRPLMTPRP | 0.195 |
| RRIRDRPPRLPRPRPRPLNGPRP | -0.00962 |
| RRIRDRPPRLPRPRPRPLPGPRP | 0.312 |
| RRIRDRPPRLPRPRPRPLPIPRP | 0.162 |
| RRIRDRPPRLPRPRPRPLQHPRP | 0.0148 |
| RRIRDRPPRLPRPRPRPLQWPRP | 0.219 |
| RRIRDRPPRLPRPRPRPLRGPRP | 0.112 |
| RRIRDRPPRLPRPRPRPLSFPRP | 0.0422 |
| RRIRDRPPRLPRPRPRPLVAPRP | 0.912 |
| RRIRDRPPRLPRPRPRPLVIPRP | -0.0438 |
| RRIRDRPPRLPRPRPRPLVTPRP | 0.486 |
| RRIRDRPPRLPRPRPRPLWIPRP | -0.421 |
| RRIRDRPPRLPRPRPRPLWPPRP | 0.662 |
| RRIRDRPPRLPRPRPRPMCMPRP | 0.0237 |

| Sequence | shrunken log2 fold change |
| --- | --- |
| RRIRDRPPRLPRPRPRPMEAPRP | -0.0266 |
| RRIRDRPPRLPRPRPRPMEDPRP | -0.0288 |
| RRIRDRPPRLPRPRPRPMFAPRP | 0.199 |
| RRIRDRPPRLPRPRPRPMGIPRP | 0.0303 |
| RRIRDRPPRLPRPRPRPMHAPRP | 0.121 |
| RRIRDRPPRLPRPRPRPMHCPRP | -0.00112 |
| RRIRDRPPRLPRPRPRPMIYPRP | -0.0383 |
| RRIRDRPPRLPRPRPRPMKVPRP | -0.0768 |
| RRIRDRPPRLPRPRPRPMMKPRP | 0.157 |
| RRIRDRPPRLPRPRPRPMMQPRP | 0.0408 |
| RRIRDRPPRLPRPRPRPMPIPRP | 0.000679 |
| RRIRDRPPRLPRPRPRPMPRPRP | 0.26 |
| RRIRDRPPRLPRPRPRPMQAPRP | -0.00208 |
| RRIRDRPPRLPRPRPRPMQHPRP | -0.00754 |
| RRIRDRPPRLPRPRPRPMQMPRP | 0.467 |
| RRIRDRPPRLPRPRPRPMRRPRP | 0.363 |
| RRIRDRPPRLPRPRPRPMSCPRP | -0.00207 |
| RRIRDRPPRLPRPRPRPMSKPRP | 0.101 |
| RRIRDRPPRLPRPRPRPMSSPRP | 0.0508 |
| RRIRDRPPRLPRPRPRPMTWPRP | 0.000751 |
| RRIRDRPPRLPRPRPRPMWHPRP | -0.008 |
| RRIRDRPPRLPRPRPRPMYFPRP | -0.358 |
| RRIRDRPPRLPRPRPRPNAEPRP | 0.359 |
| RRIRDRPPRLPRPRPRPNAMPRP | -0.0158 |
| RRIRDRPPRLPRPRPRPNAVPRP | -0.101 |

| Sequence | shrunken log2 fold change |
| --- | --- |
| RRIRDRPPRLPRPRPRPNDHPRP | -0.53 |
| RRIRDRPPRLPRPRPRPNEDPRP | 0.00355 |
| RRIRDRPPRLPRPRPRPNEEPRP | -0.019 |
| RRIRDRPPRLPRPRPRPNEPPRP | -0.0233 |
| RRIRDRPPRLPRPRPRPNFCPRP | -0.00997 |
| RRIRDRPPRLPRPRPRPNFKPRP | -0.0287 |
| RRIRDRPPRLPRPRPRPNFVPRP | -0.0655 |
| RRIRDRPPRLPRPRPRPNGCPRP | -0.00152 |
| RRIRDRPPRLPRPRPRPNGSPRP | -0.0808 |
| RRIRDRPPRLPRPRPRPNIEPRP | -0.00164 |
| RRIRDRPPRLPRPRPRPNIQPRP | -0.0288 |
| RRIRDRPPRLPRPRPRPNNKPRP | -0.682 |
| RRIRDRPPRLPRPRPRPNQEPRP | -0.0564 |
| RRIRDRPPRLPRPRPRPNSAPRP | -1.36 |
| RRIRDRPPRLPRPRPRPNTPPRP | -0.0665 |
| RRIRDRPPRLPRPRPRPNTQPRP | 0.0704 |
| RRIRDRPPRLPRPRPRPNWWPRP | 0.22 |
| RRIRDRPPRLPRPRPRPNYIPRP | -1.03 |
| RRIRDRPPRLPRPRPRPPCHPRP | -0.363 |
| RRIRDRPPRLPRPRPRPPDAPRP | 0.65 |
| RRIRDRPPRLPRPRPRPPDHPRP | 0.527 |
| RRIRDRPPRLPRPRPRPPFMPRP | 0.042 |
| RRIRDRPPRLPRPRPRPPFNPRP | -0.217 |
| RRIRDRPPRLPRPRPRPPFYPRP | -0.213 |
| RRIRDRPPRLPRPRPRPPGDPRP | 1.29 |

| Sequence | shrunken log2 fold change |
| --- | --- |
| RRIRDRPPRLPRPRPRPPGSPRP | 0.511 |
| RRIRDRPPRLPRPRPRPPHIPRP | -0.213 |
| RRIRDRPPRLPRPRPRPPHRPRP | 0.195 |
| RRIRDRPPRLPRPRPRPPIPPRP | -0.0554 |
| RRIRDRPPRLPRPRPRPPKEPRP | -0.2 |
| RRIRDRPPRLPRPRPRPPKTPRP | 0.257 |
| RRIRDRPPRLPRPRPRPPLCPRP | 0.223 |
| RRIRDRPPRLPRPRPRPPLHPRP | 0.177 |
| RRIRDRPPRLPRPRPRPPLIPRP | 0.129 |
| RRIRDRPPRLPRPRPRPPLPPRP | 0.737 |
| RRIRDRPPRLPRPRPRPPLWPRP | 0.228 |
| RRIRDRPPRLPRPRPRPPMVPRP | 0.207 |
| RRIRDRPPRLPRPRPRPPNGPRP | 0.0163 |
| RRIRDRPPRLPRPRPRPPPTPRP | 0.973 |
| RRIRDRPPRLPRPRPRPPQAPRP | 0.268 |
| RRIRDRPPRLPRPRPRPPQTPRP | 0.115 |
| RRIRDRPPRLPRPRPRPPVFPRP | 1.59 |
| RRIRDRPPRLPRPRPRPPVNPRP | 0.519 |
| RRIRDRPPRLPRPRPRPPWFPRP | 0.336 |
| RRIRDRPPRLPRPRPRPPYNPRP | -0.395 |
| RRIRDRPPRLPRPRPRPQHDPRP | -0.249 |
| RRIRDRPPRLPRPRPRPQISPRP | 0.141 |
| RRIRDRPPRLPRPRPRPQNAPRP | -0.111 |
| RRIRDRPPRLPRPRPRPQNDPRP | -0.215 |
| RRIRDRPPRLPRPRPRPQNHPRP | -0.34 |

| Sequence | shrunken log2 fold change |
| --- | --- |
| RRIRDRPPRLPRPRPRPQPIPRP | 0.152 |
| RRIRDRPPRLPRPRPRPQPKPRP | 0.026 |
| RRIRDRPPRLPRPRPRPQQDPRP | 0.0798 |
| RRIRDRPPRLPRPRPRPQQPPRP | 0.902 |
| RRIRDRPPRLPRPRPRPQQQPRP | -0.114 |
| RRIRDRPPRLPRPRPRPQTFPRP | 0.0361 |
| RRIRDRPPRLPRPRPRPQTSPRP | 0.117 |
| RRIRDRPPRLPRPRPRPQWDPRP | 0.101 |
| RRIRDRPPRLPRPRPRPQWRPRP | 0.21 |
| RRIRDRPPRLPRPRPRPQWTPRP | 0.448 |
| RRIRDRPPRLPRPRPRPQWYPRP | -0.45 |
| RRIRDRPPRLPRPRPRPQYAPRP | -0.101 |
| RRIRDRPPRLPRPRPRPQYRPRP | -0.0135 |
| RRIRDRPPRLPRPRPRPRASPRP | 0.214 |
| RRIRDRPPRLPRPRPRPRAVPRP | 0.764 |
| RRIRDRPPRLPRPRPRPRDIPRP | 0.0838 |
| RRIRDRPPRLPRPRPRPREIPRP | -0.00904 |
| RRIRDRPPRLPRPRPRPREKPRP | 0.342 |
| RRIRDRPPRLPRPRPRPREMPRP | 0.00815 |
| RRIRDRPPRLPRPRPRPRFCPRP | 0.341 |
| RRIRDRPPRLPRPRPRPRGKPRP | -0.0455 |
| RRIRDRPPRLPRPRPRPRHFPRP | -0.0107 |
| RRIRDRPPRLPRPRPRPRIYPRP | -0.173 |
| RRIRDRPPRLPRPRPRPRKQPRP | -0.0319 |
| RRIRDRPPRLPRPRPRPRLCPRP | 0.265 |

| Sequence | shrunken log2 fold change |
| --- | --- |
| RRIRDRPPRLPRPRPRPRMEPRP | -0.239 |
| RRIRDRPPRLPRPRPRPRMQPRP | -0.196 |
| RRIRDRPPRLPRPRPRPRNTPRP | -0.205 |
| RRIRDRPPRLPRPRPRPRNYPRP | -0.313 |
| RRIRDRPPRLPRPRPRPRQYPRP | -0.332 |
| RRIRDRPPRLPRPRPRPRREPRP | 0.281 |
| RRIRDRPPRLPRPRPRPRRFPRP | 0.212 |
| RRIRDRPPRLPRPRPRPRTHPRP | -0.188 |
| RRIRDRPPRLPRPRPRPRYHPRP | -0.0202 |
| RRIRDRPPRLPRPRPRPRYKPRP | -0.202 |
| RRIRDRPPRLPRPRPRPRYYPRP | -0.175 |
| RRIRDRPPRLPRPRPRPSAGPRP | 0.67 |
| RRIRDRPPRLPRPRPRPSASPRP | 0.259 |
| RRIRDRPPRLPRPRPRPSCFPRP | 0.126 |
| RRIRDRPPRLPRPRPRPSCPPRP | 0.00741 |
| RRIRDRPPRLPRPRPRPSDCPRP | -0.482 |
| RRIRDRPPRLPRPRPRPSFAPRP | 0.263 |
| RRIRDRPPRLPRPRPRPSGGPRP | 0.356 |
| RRIRDRPPRLPRPRPRPSGSPRP | -0.00469 |
| RRIRDRPPRLPRPRPRPSGYPRP | 0.0153 |
| RRIRDRPPRLPRPRPRPSHPPRP | -0.425 |
| RRIRDRPPRLPRPRPRPSMTPRP | 0.237 |
| RRIRDRPPRLPRPRPRPSPDPRP | 0.312 |
| RRIRDRPPRLPRPRPRPSPIPRP | 0.0798 |
| RRIRDRPPRLPRPRPRPSPSPRP | -0.018 |
